From publication PMC12813162 come the findings set out here.

The target of the assay is phospholipase B D2. The assay is described as follows: IP-MS (UBQLN2 immunoprecipitation, mass spectrometry). To be noted: iMNs; read off a plot.

Take “Ubiquilin-2, wild type (from UniProt Q9UHD9) P497H; P506T; P509S; P525S”: the other: Student's T-test Difference was found to be 0.47.
